{
  "source": "paper PMC10639050",
  "about": "“ZNF432 stimulates PARylation and inhibits DNA resection to balance PARPi sensitivity and resistance”",
  "binders": {"B1": {"name": "Single-stranded DNA (ssDNA)", "DNA": "GGGCGAATTGGGCCCGACGTCGCATGCTCCTCTAGACTCGAGGAATTCGGTACCCCGGGTTCGAAATCGATAAGCTTACAGTCTCCATTTAAAGGACAAG"}},
  "key": {"ZNF432 full-length": {"biological_target": "ZNF432 full-length (Homo sapiens, UniProt O94892 1-652)", "sequence (O94892 whole entry)": "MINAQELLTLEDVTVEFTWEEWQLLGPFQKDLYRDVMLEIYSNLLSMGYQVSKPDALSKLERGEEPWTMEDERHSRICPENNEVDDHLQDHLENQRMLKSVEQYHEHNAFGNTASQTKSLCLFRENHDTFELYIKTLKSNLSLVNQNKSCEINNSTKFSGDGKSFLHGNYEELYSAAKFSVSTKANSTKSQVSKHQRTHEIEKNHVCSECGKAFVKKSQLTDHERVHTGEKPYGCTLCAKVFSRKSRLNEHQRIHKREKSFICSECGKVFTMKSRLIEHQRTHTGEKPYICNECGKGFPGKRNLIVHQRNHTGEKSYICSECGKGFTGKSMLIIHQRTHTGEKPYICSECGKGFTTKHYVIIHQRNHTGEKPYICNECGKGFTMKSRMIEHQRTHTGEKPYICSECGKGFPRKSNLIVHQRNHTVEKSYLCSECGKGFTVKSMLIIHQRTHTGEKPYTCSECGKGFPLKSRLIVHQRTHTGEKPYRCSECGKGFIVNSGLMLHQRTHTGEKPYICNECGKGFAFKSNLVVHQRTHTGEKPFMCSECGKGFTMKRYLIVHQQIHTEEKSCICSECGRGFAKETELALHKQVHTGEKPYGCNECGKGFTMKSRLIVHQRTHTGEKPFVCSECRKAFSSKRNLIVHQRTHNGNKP", "assay": "EMSA; no fixation, 1 mM CaCl2; 100 nM DNA stated, protein 1-6 nM; 25 mM MOPS pH 7.0, 60 mM KCl, 0.2% Tween, 2 mM DTT, CaCl2 (40 nM as printed with glutaraldehyde fixation; 1 mM without fixation for Kd), 37 C 30 min; 8% TBE acr", "settings": "protein: recombinant; tags: C-terminal 10xHis (GST removed with PreScission); label: 32P (gamma-32P); single strand"}, "ZNF432 KRAB domain": {"biological_target": "ZNF432 KRAB domain (Homo sapiens, UniProt O94892 1-205)", "sequence (O94892 1-205)": "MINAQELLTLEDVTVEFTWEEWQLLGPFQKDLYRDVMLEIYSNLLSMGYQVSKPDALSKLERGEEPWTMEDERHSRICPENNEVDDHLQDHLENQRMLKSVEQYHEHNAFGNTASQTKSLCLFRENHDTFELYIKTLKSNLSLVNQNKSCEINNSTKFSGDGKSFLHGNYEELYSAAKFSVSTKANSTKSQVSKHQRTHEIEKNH", "assay": "EMSA; negligible binding; 1-6 nM protein, no fixation; 25 mM MOPS pH 7.0, 60 mM KCl, 0.2% Tween, 2 mM DTT, CaCl2 (40 nM as printed with glutaraldehyde fixation; 1 mM without fixation for Kd), 37 C 30 min; 8% TBE acr", "settings": "protein: recombinant; tags: His (GST removed with PreScission); label: 32P (gamma-32P); single strand"}},
  "data": [
    {"binder": "B1", "values": [
      {"measurement": "Kd", "setting": "ZNF432 full-length", "value": 5.41, "unit": "nM"},
      {"measurement": "binding result", "setting": "ZNF432 KRAB domain", "value": "no binding"}
    ]}
  ]
}
